Test [1] deals with acetylcholine receptor. Put plainly: SPR, acetylcholine receptor immobilized on CM5 chip, peptide at 10 uM. (In general: In SPR one partner is held on a chip, and binding of the other changes the refractive index at the surface.)
Test [2] concerns the target acetylcholine receptor. Put plainly: SPR, acetylcholine receptor on CM5 chip, peptide 10 µM.
Test [3] has as its target acetylcholine receptor. Description: SPR, acetylcholine receptor immobilized on chip, peptide at 10 uM.
Test [4] concerns the target acetylcholine receptor protein. Put plainly: SPR, affinity against the reference Synake.
Test [5] addresses acetylcholine receptor protein. Put plainly: SPR, receptor on CM5 chip, method of Example 1 (FIG. 3).
In test [6] the target is acetylcholine receptor protein. Description: SPR (Biacore 3000), receptor immobilised on CM5 chip, peptide in solution; given as 'affinity'.
Test [7] deals with acetylcholine receptor. Put plainly: SPR, AchR immobilized on chip.
In test [8] the target is acetylcholine receptor. Description: SPR, peptide at 10 uM on immobilised AchR.
In test [9] the target is acetylcholine receptor protein. Put plainly: SPR, concentration series (FIG. 9); given as 'affinity'.

RYTFR [5mer-899]: in [1], the Binding affinity (RU) came out at 31 RU.

In test [1], RKNEK [5mer-1200] returned a Binding affinity (RU) of 16 RU. With RWQYRK [6mer-2-579], in test [2], the Binding affinity (RU) was determined as 135 RU. The same measure, in the same setting: for KQFLRK [6mer-2-597] the value was 154 RU. Regarding KLYSK [5mer-600], the Binding affinity (RU) in test [3] stood at 64 RU. KGVSRR [6mer-2-576]: in [2], the Binding affinity (RU) is 139 RU. RGYSRK [6mer-2-575] gave a Binding affinity (RU) in [2] of 139 RU. On to KLYLRR [6mer-2-573], for which, in test [2], the Binding affinity (RU) came out at 121 RU. Same read-out and setting: for RSQLKK [6mer-2-600] the value was 139 RU.

In test [2], RWVLRK [6mer-2-592] came in with a Binding affinity (RU) of 122 RU. The same measure, in the same setting: for KVFRRR [6mer-2-598] the value was 146 RU; for RSVLRK [6mer-2-578], 135 RU; for RGYQRR [6mer-2-571], 135 RU. RWQTRK [6mer-2-582] displayed a Binding affinity (RU) in test [2] of 148 RU. Broadly, the Kd is the free concentration of one partner at which half of the binding sites on the other are occupied at equilibrium, for simple one-to-one binding. Higher therefore signals lower affinity. Consider RKSLLR [Espep2-6mer], for which the fold higher affinity compared to Synake in test [4] was found to be 40 times. For the same molecule, the RU value in test [5] was 177 RU. This molecule also came in with a Kd in test [6] of 57 µM.

For KWQQRR [6mer-2-580], in [2], the Binding affinity (RU) was 121 RU.

KGRRK [5mer-299] had a Binding affinity (RU) in test [3] of 62 RU. For the molecule KSQRRK [6mer-2-572], in [2], the Binding affinity (RU) was 148 RU. Same read-out and setting: for KGVYRK [6mer-2-574] the value was 153 RU; for RWLSRK [6mer-2-586], 121 RU; for RSFRRK [6mer-2-585], 136 RU.

As to RKRIRR [6mer-1-43], the Binding affinity (RU) in test [7] and in [8] was 548 RU each time. For the same molecule, the equilibrium dissociation constant (Kd) in test [9] came to 0.609 µM. For KGRLRK [6mer-2-590], the Binding affinity (RU) in test [2] turned out to be 148 RU.

In test [2], KRVQRR [6mer-2-577] came in with a Binding affinity (RU) of 139 RU. Consider RQYRK [5mer-300], for which the Binding affinity (RU) in test [3] came to 81 RU.

KWVSR [5mer-599] registered a Binding affinity (RU) in [3] of 61 RU. In test [2], RRRYRK [6mer-2-599] came in with a Binding affinity (RU) of 121 RU. Regarding KSVTKK [6mer-2-583], the Binding affinity (RU) in [2] amounted to 154 RU. For RSQLKR [6mer-2-593], the Binding affinity (RU) in test [2] is 139 RU. The same measure, in the same setting: for RWQQRK [6mer-2-589] the value was 153 RU. As to KNNNR [5mer-1199], in test [1], the Binding affinity (RU) turned out to be 29 RU. Molecule RVQQKR [6mer-2-581] gave a Binding affinity (RU) in test [2] of 139 RU. For the molecule KWFYKK [6mer-2-588], the Binding affinity (RU) in [2] came out at 149 RU. The same measure, in the same setting: to RWYRRR [6mer-2-594] belongs 139 RU; to KLRCKK [6mer-2-595], 154 RU. On the same count and under the same terms, to KRLTRK [6mer-2-584] belongs 148 RU. In test [2], KGILRR [6mer-2-591] came in with a Binding affinity (RU) of 146 RU. In test [2], KGIQKK [6mer-2-596] showed a Binding affinity (RU) of 153 RU. In turn, RVYYKR [6mer-2-570] displayed a Binding affinity (RU) in [2] of 148 RU.

In the case of KRISKR [6mer-2-587], the Binding affinity (RU) in test [2] was 148 RU. On to RHSVK [5mer-900], for which, in [1], the Binding affinity (RU) amounted to 29 RU.
